This passage reports stoichiometry N results from PMC5149402.

The assay deals with rat GluD2 ATD tetramerised with an engineered tetrameric coiled-coil zipper based on GCN4 (rat | not stated).

What is called stoichiometry N is a count of units in the complex or per binding partner. Substance “rat GluD2 ATD tetramerised with an engineered tetrameric coiled-coil zipper based on GCN4 (domain or fragment)” displayed a stoichiometry N of 4.
